Measurements as given in US12291578B2, “Anti-matrix metalloproteinase 7 (MMP-7) inhibitory antibody and uses thereof” (Yeda Research and Development Co. Ltd., priority 2019, dated 2025).
“Also recorded” adds a separate entry of the source.

How the values were obtained:
MMP-9 [1] = target: T1, MMP-9 (Homo sapiens, UniProt P14780); assay: ELISA binding, cross-reactivity
[2] = target: T2, activated MMP-7 recombinant enzyme (Homo sapiens, UniProt P09237); assay: Dot blot, activated enzyme; type: binding; conditions: different concentrations of enzyme
T2 sequence (P09237 95-267): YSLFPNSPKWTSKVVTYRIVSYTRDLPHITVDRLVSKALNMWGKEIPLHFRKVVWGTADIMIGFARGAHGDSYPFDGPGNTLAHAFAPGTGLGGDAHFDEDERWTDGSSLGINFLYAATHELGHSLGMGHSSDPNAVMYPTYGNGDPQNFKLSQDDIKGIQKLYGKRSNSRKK
Experimental: A dot blot was performed by immobilizing 1, 1.5 and 2 μg zymogen and activated MMP-7 recombinant enzyme on nitrocellulose membrane pre wetted with TBST using a vacuum based manifold 96 well dot-blot system (GE 10447900 Minifold dot blot). The blocking was performed for 1 hour at room temperature with 3% BSA in TBST. The membrane was then probed for binding by antibody eluted in the earlier step by incubating overnight. The anti MMP-7 mAb used was at 2 ug/ml concentration in TBST. The membrane after 3 washes in TBST was incubated with goat anti mouse HRP antibody and developed using ECL to determine the selectivity of binding towards catalytic form only.

[3] = system: RIP1-Tag2 insulinoma (PanNET) model; assay: Early stage treatment in RIP1-Tag2 (PanNET) mice; type: in vivo, mouse; conditions: 3 mg/kg every day IP; for area covered by CD34+ cells: islets undergoing angiogenesis
Description: (§1) RIP1-Tag2: The RIP1Tag2 (RT2) murine PanNET model was developed by the fusion of Rat Insulin II promoter region to the SV40 early region that encodes the large T and small t antigens. Although oncogene expression begins during embryonic development (E8.5), the pancreatic islets initially have a normal anatomical and histological appearance (“normal” stage). Beginning at 4-5 weeks of age, hyperplastic and dysplastic islets begin to appear, rending 50% of all islets by 10 weeks of age. Angiogenic islets appear beginning around 6 weeks of age, and represent 10% of all islets at 10.5 weeks. Angiogenic islets are recognized by their dilated blood vessels and micro-hemorrhages. Tumors form beginning at 9-10 weeks and represent 2-4% of all the islets by 14 weeks. About half of the tumors at end stage evidence either focal or widespread invasion to the surrounding acinar tissue. RIP-Tag2 mice die at approximately 14 weeks of age primarily due to hyperinsulinemia.
GSM-192 treatment reduces occurrence of advanced tumor lesions in RIP1-Tag2 (PanNET) mice in early stage treatments: RIP1-Tag2 mice (n=15) in transition stage from hyperplastic to angiogenic stage spanning 6 to 8 weeks of age were treated with GSM-192 and GST control antibody at a concentration of 3 mg/kg every day intra peritoneal (IP). Animals at age 8 weeks post treatment was sacrificed and their pancreas was embedded in paraffin blocks and sectioned. Several sections in different depth in the tissue were made for subsequent histological analysis or immunofluorescence staining. Tumor sizes and staging was done in accordance with RIP1-Tag2 manual. […] As previously observed in in-vitro cell culture, the tissue was tested for differences in cell proliferation rate (with cell division marker Ki-67) and in cell apoptosis rate (with effector apoptotic marker Caspase-3).

CFPAC-1 cells = assay: Trans-well migration assay; type: cell-based, human; conditions: 15 h post treatment, sub-lethal concentrations
Experimental: Trans-well migration assay: Cells were starved overnight in assay media (IMDM media containing only 1% serum). Cells (1×10^5) were added to the top chambers of 24-well transwell plates (BD Biosciences; 8 μm pore size), and assay media, with or without GSM-192, was added to both chambers. […] The numbers of cells in five fields were counted under 20× magnification, and the mean for each chamber determined.
GSM-192 Fab reduces cell motility in vitro: MMP-7 mediated E-Cadherin cleavage promotes cell migration^19, so it was hypothesized that an effective anti MMP-7 antibody directed to the activated enzyme should be able to impact migration.

MMP-12 [4] = target: T3, MMP-12 (Homo sapiens, UniProt P39900); assay: ELISA binding, cross-reactivity
T3 sequence (P39900 106-470): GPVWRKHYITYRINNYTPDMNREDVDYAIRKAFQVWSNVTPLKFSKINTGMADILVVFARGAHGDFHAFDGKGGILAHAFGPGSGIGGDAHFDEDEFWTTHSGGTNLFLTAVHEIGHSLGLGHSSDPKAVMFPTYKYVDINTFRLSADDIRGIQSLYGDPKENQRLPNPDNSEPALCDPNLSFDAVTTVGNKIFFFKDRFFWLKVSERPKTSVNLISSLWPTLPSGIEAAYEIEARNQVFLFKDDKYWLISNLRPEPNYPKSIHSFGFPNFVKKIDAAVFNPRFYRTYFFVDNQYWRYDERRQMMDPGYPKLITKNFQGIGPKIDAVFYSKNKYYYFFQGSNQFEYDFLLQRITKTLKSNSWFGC

panel of other MMPs = assay: ELISA binding, panel of other MMPs
Experimental: MMP-7 Elisa binding assay: A 96-well plate (Nunc) was coated with MMP at […]. After coating, the plate was incubated with the GSM-192 at 25° C. for 1 h. The bound Fab fragment/full length was detected using a goat anti-Fab/anti-mouse antibody followed by peroxidase-conjugated bovine anti-goat antibody according to standard procedures. A four-parametric sigmoidal curve-fitting analysis was used to calculate the half-maximal effective concentration.

[5] = system: RIP1-Tag2 insulinoma (PanNET) model; assay: Late stage treatment in RIP1-Tag2 (PanNET) mice; type: in vivo, mouse; conditions: age 10 to 12 weeks, 5 mg/kg every other day IP
Description: as §1
The tumor volume was measured using x, y and z dimensions from a caliper scale.

MMP-12 [6] = target: T3, MMP-12; assay: Enzymatic activity of related MMPs (fluorogenic peptide); type: biochemical; conditions: in vitro
Experimental: (§2) MMP-7 enzymatic kinetic assay: The enzymatic activity of MMP-7 in the presence of GSM-192 Fab was measured at 37° C. by monitoring the hydrolysis of fluorogenic peptide Mca-Pro-Leu-Gly-Leu-Dpa-Ala-Arg-NH2 (SEQ ID NO: 10) at λex=340 nm and […] as described previously^30. A range of different concentrations of GSM-192 Fab (0-200 nM) were incubated with 10 nM of MMP-7 in 50 mM Tris-HCl buffer (pH 7.5 at 37° C.), 100 mM NaCl, 5 mM CaCl2, and 0.05% Brij-35 for 2 h at 37° C. The enzymatic reaction was initiated by addition of the fluorogenic peptide to a final concentration of 10 μM. Fluorescence was recorded immediately and continuously for 30 min.
(§3) Remarkably, considering that the immunization booster also included the common zinc motif, the antibody is fully selective for MMP-7. The effect of GSM-192 Fab fragment on the enzymatic activity of human MMP-7 was examined in vitro using a short fluorogenic peptide according to a standard protocol. The enzymatic activity of recombinant active MMP-7 was measured in the presence of increasing concentrations of the Fab fragment of GSM-192. […] Simultaneously the effect of the antibody on catalytic activity of related MMPs was measured.

MMP-9 [7] = target: T1, MMP-9; assay: as above; type: biochemical; conditions: in vitro
Experimental: as §2, §3

MMP-14 = MMP-14 (Homo sapiens, UniProt P50281); assay: as above; type: biochemical; conditions: in vitro
Experimental: as §2, §3

MMP-13 = MMP-13 (Homo sapiens, UniProt P45452); assay: ELISA binding, cross-reactivity
[8] = 6 to 8 weeks of age, listed as anti MMP-7 mAb

T1 sequence (P14780 94-707, species assumed): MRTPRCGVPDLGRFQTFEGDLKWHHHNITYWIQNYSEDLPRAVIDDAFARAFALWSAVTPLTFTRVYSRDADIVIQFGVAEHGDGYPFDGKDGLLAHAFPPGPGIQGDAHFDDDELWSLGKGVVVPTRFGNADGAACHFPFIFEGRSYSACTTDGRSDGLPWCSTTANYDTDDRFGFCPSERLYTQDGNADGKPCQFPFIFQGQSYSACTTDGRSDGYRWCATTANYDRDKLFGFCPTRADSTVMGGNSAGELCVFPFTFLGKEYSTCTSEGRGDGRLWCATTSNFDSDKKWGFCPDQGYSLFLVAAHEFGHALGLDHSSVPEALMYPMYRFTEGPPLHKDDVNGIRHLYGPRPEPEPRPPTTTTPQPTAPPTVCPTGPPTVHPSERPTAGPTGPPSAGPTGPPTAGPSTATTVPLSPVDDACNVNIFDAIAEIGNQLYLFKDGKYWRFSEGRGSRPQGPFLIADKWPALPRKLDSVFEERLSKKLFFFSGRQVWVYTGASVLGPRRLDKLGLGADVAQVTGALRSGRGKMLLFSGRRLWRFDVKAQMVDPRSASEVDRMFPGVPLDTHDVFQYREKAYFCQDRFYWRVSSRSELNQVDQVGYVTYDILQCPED

crossreactivity to MMP-9 (MMP-9 [1]): did not show crossreactivity
binding to activated form of MMP-7 [2]: bound to the catalytic domain
binding to activated form of MMP-7 ([2]; listed as anti MMP-7 Ab): selective binding
crossreactivity to MMP-12 (MMP-12 [4]): did not show crossreactivity
binding to a panel of other MMPs (panel of other MMPs): did not bind effectively
crossreactivity to MMP-13 (MMP-13): did not show crossreactivity
B1: GSM-192: monoclonal antibody to MMP-7 binding the catalytic domain, not the zymogen; VL SEQ ID NO: 1, VH SEQ ID NO: 2 (antibody, V domains shown)
VH: EVQLQQSGPELVKPGASVKIPCKASGYTFTDYNMDWMKQSHGKSLEWIGHINPNNGGTFYNQKFKDKATFIVDKSSNTAYMELRSLTSEDTAVYFCARGGGLRRGPFAYWGQGTLVTVS
VL: DIVTQSPASLAVSLGQRATISCRASESFDSYGNTFVHWYQQKPGQPPKLLIYLVSNLESGVPAGFRGRGSRTDFTLTIDPVEADDAATYYCQQNNEDPYTFGGGTKLEIKRA
modifications: GSM-192 Heavy Chain Sequence; GSM-192 Light Chain Sequence
number of Caspase-3 positive cells (apoptosis) ([3]; 6 to 8 weeks of age): No significant change
number of Ki-67 positive cells (cell proliferation) ([3]; 6 to 8 weeks of age): No significant change
number of Caspase-3 positive cells (apoptosis) [3, 8]: does not show significant difference
number of Ki-67 positive cells (cell proliferation) [3, 8]: does not show significant difference
number of angiogenic islets / fraction of islets advancing to post angiogenic lesions ([3]; 6 to 8 weeks of age, vs GST control antibody): reduced almost by half; also recorded: half of the total seen in control mice
area covered by CD34+ cells [3]: less abundant
area covered by CD34+ cells ([3]; listed as anti MMP-7 mAb): reduces the area covered by CD34+ cells
cells migrating across the transwell membrane (CFPAC-1 cells): almost by half; also recorded: reduces cells migrating across the transwell membrane significantly
tumor volume relative to control group [5]: less than half
effect on catalytic activity of MMP-12 (MMP-12 [6]): negligible or no effect
effect on catalytic activity of MMP-9 (MMP-9 [7]): negligible or no effect
effect on catalytic activity of MMP-14 (MMP-14): negligible or no effect
